Laboratory results from paper PMC11137118 (2024).

Columns and labels:
[1] = target: hIL-22-ScFv (human IL-22 fused to a pancreas/liver targeting single chain variable fragment, linker (G4S)1) (human, UniProt Q9GZX6); assay: SPR
[2] = target: all variants (mouse) of IL-22-ScFv; assay: SPR

B1: IL-22RA1 receptor (receptor)
chain: HAPEDPSDLLQHVKFQSSNFENILTWDSGPEGTPDTVYSIEYKTYGERDWVAKKGCQRITRKSCNLTVETGNLTELYYARVTAVSAGGRSATKMTDRFSSLQHTTLKPPDVTCISKVRSIQMIVHPTPTPIRAGDGHRLTLEDIFHDLFYHLELQVNRTYQMHLGGKQREYEFFGLTPDTEFLGTIMICVPTWAKESAPYMCRVKTLPDRTWTYSFSGAFLFSMGFLVAVLCYLSYRYVTKPPAPPNSLNVQRVLTFQPLRFIQEHVLIPVFDLSGPSSLAQPVQYSQIRVSGPREPAGAPQRHSLSEITYLGQPDISILQPSNVPPPQILSPLSYAPNAAPEVGPPSYAPQVTPEAQFPFYAPQAISKVQPSSYAPQATPDSWPPSYGVCMEGSGKDSPTGTLSSPKHLRPKGQLQKEPPAGSCMLGGLSLQEVTSLAMEESQEAKSLHQPLGICTDRTSDPNVLHSGEEGTPQYLKGQLPLLSSVQIEGHPMSLPLQPPSRPCSPSDQGPSPWGLLESLVCPKDEAKSPAPETSDLEQPTELDSLFRGLALTVQWES
[1]
  Kd: 3.45 nM
  koff: 0.000781 s⁻¹
[2]
  Kd: 2.82 nM
  koff: 0.000872 s⁻¹
